System: GST-RFP-SPSS/FXa-GFP-His6 fluorescent fusion protein [GST: P08515]

coagulation factor Xa
SDS-PAGE and Western blot of substrate cleavage products (GST-RFP and GFP-His): demonstrated specific cleavage of the substrate by FXa, as the amounts of the native proteins decreased while the amounts of the two truncated products (GST-RFP and GFP-His) increased with increasing concentrations of FXa
